Assay [1] concerns the target CMP-Ang1 fusion protein (encoded by mRNA-59) (human). Nature of the assay: non-reducing PAGE with immunoblot; concentrated serum-free supernatant of mRNA-transfected HeLa cells, non-reducing PAGE, Western blot with Ang1-specific antibody. For orientation: In western blotting, separated proteins are transferred to a membrane and probed.
Assay [2] addresses COMP-Ang1 fusion protein (encoded by mRNA-76), secreted by HeLa cells (not stated ('humanized' fusion protein) | human). Described as above.

One may read the stoichiometry N as a count of units in the complex or per binding partner.

“CMP-Ang1 fusion protein (encoded by mRNA-59) (ligand)” showed a stoichiometry N in assay [1] of 2.
In assay [2], “COMP-Ang1 fusion protein (encoded by mRNA-76), secreted by HeLa cells (ligand)” showed a stoichiometry N of 5.

The values are drawn from article PMC10682670.
